{"source": "patent US20100330089A1", "about": "(Pfizer, published 2010)", "key": {"[1]": {"molecular_target": "T1, Human CD20 (human) (UniProt P11836)", "T1 sequence": "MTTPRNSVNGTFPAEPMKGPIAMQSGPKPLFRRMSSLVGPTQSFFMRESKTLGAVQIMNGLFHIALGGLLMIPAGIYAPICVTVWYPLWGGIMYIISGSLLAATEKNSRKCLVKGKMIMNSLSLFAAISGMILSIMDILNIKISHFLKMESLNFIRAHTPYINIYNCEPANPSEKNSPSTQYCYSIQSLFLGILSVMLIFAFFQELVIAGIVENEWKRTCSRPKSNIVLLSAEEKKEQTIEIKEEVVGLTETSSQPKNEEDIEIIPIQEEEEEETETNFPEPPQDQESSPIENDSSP", "assay": "flow cytometry on primary human B cells, binder at 0.04 ug/ml (second block)"}, "[2]": {"molecular_target": "T1, Human CD20 (human)", "assay": "cell-based or functional assay"}, "[3]": {"molecular_target": "T1, Human CD20 (human)", "assay": "flow cytometry on primary human B cells, binder at 10 ug/ml (second block)"}, "[4]": {"molecular_target": "T1, Human CD20 (human)", "assay": "flow cytometry on primary human B cells, binder at 1.1 ug/ml (second block)"}, "[5]": {"molecular_target": "T1, Human CD20 (human)", "assay": "flow cytometry on primary human B cells, binder at 0.12 ug/ml (first block)"}, "[6]": {"molecular_target": "T1, Human CD20 (human)", "assay": "flow cytometry on primary human B cells, binder at 0.12 ug/ml (second block)"}, "[7]": {"molecular_target": "T1, Human CD20 (human)", "assay": "flow cytometry on primary human B cells, binder at 0.37 ug/ml (first block)"}, "[8]": {"molecular_target": "T1, Human CD20 (human)", "assay": "flow cytometry on primary human B cells, binder at 1.1 ug/ml (first block)"}, "[9]": {"molecular_target": "T1, Human CD20 (human)", "assay": "flow cytometry on primary human B cells, binder at 10 ug/ml (first block)"}, "[10]": {"molecular_target": "CD20 (primary B cells) (UniProt P11836)", "assay": "flow cytometry", "details": "Fc fusion"}, "[11]": {"molecular_target": "T2, Human CD20 (human, UniProt P11836 1-297)", "T2 construct": "also called Bp35", "T2 sequence": "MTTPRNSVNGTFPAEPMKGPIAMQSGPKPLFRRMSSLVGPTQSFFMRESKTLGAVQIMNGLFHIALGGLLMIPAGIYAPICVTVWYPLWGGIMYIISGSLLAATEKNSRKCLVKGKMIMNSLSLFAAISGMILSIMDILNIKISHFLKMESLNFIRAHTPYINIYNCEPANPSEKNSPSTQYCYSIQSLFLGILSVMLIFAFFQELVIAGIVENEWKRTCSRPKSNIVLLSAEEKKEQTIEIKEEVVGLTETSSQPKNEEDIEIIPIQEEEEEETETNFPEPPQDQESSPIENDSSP", "assay": "flow cytometry on primary human B cells, binder at 0.04 ug/ml (second block)"}, "[12]": {"molecular_target": "T2, Human CD20", "assay": "cell-based or functional assay"}, "[13]": {"molecular_target": "T2, Human CD20", "assay": "flow cytometry on primary human B cells, binder at 10 ug/ml (second block)"}, "[14]": {"molecular_target": "T2, Human CD20", "assay": "flow cytometry on primary human B cells, binder at 1.1 ug/ml (second block)"}, "[15]": {"molecular_target": "T2, Human CD20", "assay": "flow cytometry on primary human B cells, binder at 0.12 ug/ml (first block)"}, "[16]": {"molecular_target": "T2, Human CD20", "assay": "flow cytometry on primary human B cells, binder at 0.12 ug/ml (second block)"}, "[17]": {"molecular_target": "T2, Human CD20", "assay": "flow cytometry on primary human B cells, binder at 10 ug/ml (first block)"}, "[18]": {"molecular_target": "T2, Human CD20", "assay": "flow cytometry on five human B-lymphoma cell lines", "procedure": "(§1) Each of these cell lines was derived from a distinct non-Hodgkin's B-cell lymphoma patient. Briefly, increasing concentrations of CD20-binders were incubated with 100,000 BCL for 30 min at 4° C. Cells were then washed twice with PBS containing 1% BSA to remove unbound antibody and then a FITC labeled goat anti-human (H+ L) secondary antibody (100 fold diluted) was added for 30 min at 4° C. The cells were again washed twice to remove unbound secondary antibody and then resuspended in 1% formaldehyde (in PBS) with 1% BSA. Fluorescence intensity of each sample was measured using a Becton Dickinson FACSORT flow cytometer. Results are expressed as the geometric mean (GeoMean) of the fluorescent intensity."}, "[19]": {"molecular_target": "T2, Human CD20", "assay": "flow cytometry on NU-DHL1, Ramos, SU-DHL4, SU-DHL5 and WSU-DLCL2 cells; confirmed by immunofluorescence on Ramos and WSU-DLCL2", "procedure": "as §1"}}, "data": [{"molecule": "RITUXAN (rituximab) (antibody)", "values": [{"measurement": "MFI", "setting": "[1]", "result": 43.1, "unit": "MFI"}, {"measurement": "% lysis (CDC on Ramos cells), 0.12 ug/ml", "setting": "[2]", "result": 56.5, "unit": "% lysis"}, {"measurement": "% lysis (CDC on Ramos cells), 0.37 ug/ml", "setting": "[2]", "result": 60.2, "unit": "% lysis"}, {"measurement": "% lysis (CDC on Ramos cells), 1.1 ug/ml", "setting": "[2]", "result": 57.1, "unit": "% lysis"}, {"measurement": "% lysis (CDC on Ramos cells), 10 ug/ml", "setting": "[2]", "result": 82.5, "unit": "% lysis"}, {"measurement": "% lysis (CDC on Ramos cells), 1 nm", "setting": "[2]", "result": 67.6, "unit": "% lysis"}, {"measurement": "% lysis (CDC on Ramos cells), 4 nm", "setting": "[2]", "result": 65.1, "unit": "% lysis"}, {"measurement": "% lysis (CDC on Ramos cells), 11 nm", "setting": "[2]", "result": 66.3, "unit": "% lysis"}, {"measurement": "% lysis (CDC on Ramos cells), 100 nm", "setting": "[2]", "result": 81.9, "unit": "% lysis"}, {"measurement": "MFI", "setting": "[3]", "result": 172, "unit": "MFI"}, {"measurement": "MFI", "setting": "[4]", "result": 93, "unit": "MFI"}, {"measurement": "MFI", "setting": "[5]", "result": 106, "unit": "MFI"}, {"measurement": "MFI", "setting": "[6]", "result": 82.3, "unit": "MFI"}, {"measurement": "MFI", "setting": "[7]", "result": 137, "unit": "MFI"}, {"measurement": "MFI", "setting": "[8]", "result": 173, "unit": "MFI"}, {"measurement": "MFI", "setting": "[9]", "result": 199, "unit": "MFI"}]}, {"molecule": "TRU-015", "values": [{"measurement": "EC50", "setting": "[10]", "result": 0.279, "unit": "µg/mL"}]}, {"molecule": "TRU-015 (Fc fusion)", "values": [{"measurement": "MFI", "setting": "[11]", "result": 19.9, "unit": "MFI"}, {"measurement": "% lysis (CDC on Ramos cells), 0.12 ug/ml", "setting": "[12]", "result": 16.3, "unit": "% lysis"}, {"measurement": "% lysis (CDC on Ramos cells), 0.37 ug/ml", "setting": "[12]", "result": 38.8, "unit": "% lysis"}, {"measurement": "% lysis (CDC on Ramos cells), 1.1 ug/ml", "setting": "[12]", "result": 56.1, "unit": "% lysis"}, {"measurement": "% lysis (CDC on Ramos cells), 10 ug/ml", "setting": "[12]", "result": 67.7, "unit": "% lysis"}, {"measurement": "% lysis (CDC on Ramos cells), 1 nm", "setting": "[12]", "result": 19.8, "unit": "% lysis"}, {"measurement": "% lysis (CDC on Ramos cells), 4 nm", "setting": "[12]", "result": 26.2, "unit": "% lysis"}, {"measurement": "% lysis (CDC on Ramos cells), 11 nm", "setting": "[12]", "result": 49.7, "unit": "% lysis"}, {"measurement": "% lysis (CDC on Ramos cells), 100 nm", "setting": "[12]", "result": 86.1, "unit": "% lysis"}, {"measurement": "MFI", "setting": "[13]", "result": 124, "unit": "MFI"}, {"measurement": "MFI", "setting": "[14]", "result": 53.4, "unit": "MFI"}, {"measurement": "MFI", "setting": "[15]", "result": 42.8, "unit": "MFI"}, {"measurement": "MFI", "setting": "[16]", "result": 31.4, "unit": "MFI"}, {"measurement": "MFI", "setting": "[17]", "result": 149, "unit": "MFI"}]}, {"molecule": "018008 (Fc fusion, not shown: a dimerising Fc or GST, Humanized SMIP as named without a hinge suffix) EIVLTQSPATLSLSPGERATLSCRASQSVSYMHWYQQKPGQAPRLLIYAPSNLASGIPARFSGSGSGTDFTLTISSLEPEDFAVYYCQQWSFNPPTFGQGTKVEIKDGGGSGGGGSGGGGTGEVQLVQSGAEVKKPGESLKISCKGSGYSFTSYNMHWVRQMPGKGLEWMGAIYPGNGDTSYNQKFKGQVTISADKSISTAYLQWSSLKASDTAMYYCARVVYYSNSYWYFDLWGRGTLVTVSS", "values": [{"measurement": "binding result", "setting": "[18]", "result": "binds"}]}, {"molecule": "018011 (Fc fusion, not shown: called human IgG1) EIVLTQSPATLSLSPGERATLSCRASQSVSYIVWYQQKPGQAPRLLIYAPSNLASGIPARFSGSGSGTDFTLTISSLEPEDFAVYYCQQWSFNPPTFGQGTKVEIKDGGGSGGGGSGGGGTGEVQLVQSGAEVKKPGESLKISCKGSGYSFTSYNMHWVRQMPGKGLEWMGAIYPGNGDTSYNQKFKGQVTISADKSISTAYLQWSSLKASDTAMYYCARSYYSNSYWYFDLWGRGTLVTVSS", "values": [{"measurement": "binding result", "setting": "[19]", "result": "binds"}]}, {"molecule": "2Lm20-4 (Fc fusion, not shown: a dimerising Fc or GST, Humanized SMIP as named without a hinge suffix) EIVLTQSPATLSLSPGERATLSCRASSSVSYIVWYQQKPGQAPRLLIYAPSNLASGIPARFSGSGSGTDFTLTISSLEPEDFAVYYCQQWSFNPPTFGQGTKVEIKDGGGSGGGGSGGGGSSQVQLVQSGAEVKKPGASVKVSCKASGYTFTSYNMHWVRQAPGQGLEWMGAIYPGNGDTSYNQKFKGRVTMTRDTSTSTVYMELSSLRSEDTAVYYCARSYYSNSYWYFDLWGRGTLVTVSS", "values": [{"measurement": "binding result", "setting": "[18]", "result": "binds"}]}]}
